Measured values: US20240181073A1, “Antibody-Drug Conjugates Comprising an Anti-BCMA Antibody” (Sorrento Therapeutics, Inc., priority 2021, published 2024)

Assays:
[1] = tested on: NCI-H929 (BCMA+) cells and K562 (BCMA −) cells; assay: In vitro cytotoxicity assay, Example B2, statements across all cell lines; assay type: cell-based, human; settings: regardless of BCMA expression level; read-out: average EC50, inhibition of cell proliferation across all cell lines
Procedure: The in vitro efficacies of ADCs anti-BCMA-Compound 50, anti-BCMA-Compound 51, anti-BCMA-Compound 52, and anti-BCMA-Compound 53, were compared to anti-BCMA-Compound 3. Anti-BCMA-AB1 clone was conjugated with compounds 50, 51, 52, 53 or 3 and the ADCs were evaluated using the following human cancer cell lines: BCMA-negative K562 and BCMA-positive NCI-H929, purchased from the American Type Culture Collection (ATCC; Manassas, VA). […]
The in vitro assays were performed as follows: All cells were harvested by removal of a portion of the cell culture suspension followed by centrifugation at 300 g for 5 minutes, followed by resuspension in cell culture medium (described above in Cell Culture method), viable cell count (as described above in Cell Culture method), and then seeded into 384-well white wall clear bottom plates (Catalog #3765, Corning) at a density of 2,500 cells/well in growth media. […] After treatment, cell viability was determined by CellTiter-Glo 2.0 assay (Catalog #G9243; Promega; Madison, WI, USA) based on the manufacturer's instructions. CellTiter Glo reagent reacts with ATP in metabolically active cells to give a luminescent readout that is directly proportional to the number of viable cells. […] Luminescence was measured using a Tecan Spark microplate reader (Tecan; Mannedorf, Switzerland). […]

BCMA-negative K562 = assay: In vitro cytotoxicity assay (CellTiter-Glo 2.0, 384-well), Example B2; assay type: cell-based, human
Procedure: (§1) The in vitro efficacies of ADCs anti-BCMA-Compound 50, anti-BCMA-Compound 51, anti-BCMA-Compound 52, and anti-BCMA-Compound 53, were compared to anti-BCMA-Compound 3. Anti-BCMA-AB1 clone was conjugated with compounds 50, 51, 52, 53 or 3 and the ADCs were evaluated using the following human cancer cell lines: BCMA-negative K562 and BCMA-positive NCI-H929, purchased from the American Type Culture Collection (ATCC; Manassas, VA).
(§2) Cell Culture Method: The cell lines were cultured in RPMI-1640 medium (Catalog #10-041-CV: Corning) supplemented with 10-20% fetal bovine serum (FBS; Catalog #MT35011CV; Corning) and 1× penicillin-streptomycin (Catalog #30-002-Cl, Corning) and maintained at 37° C. in a 5% C02 humidified environment. Viable cell counts were made by Trypan blue exclusion using a Countess or Countess II automated cell counter.
(§3) The in vitro assays were performed as follows: All cells were harvested by removal of a portion of the cell culture suspension followed by centrifugation at 300 g for 5 minutes, followed by resuspension in cell culture medium (described above in Cell Culture method), viable cell count (as described above in Cell Culture method), and then seeded into 384-well white wall clear bottom plates (Catalog #3765, Corning) at a density of 2,500 cells/well in growth media. Plates were maintained at 37° C. The outer wells of plates contained medium only and were used for background subtraction for the cell viability assay. Working solutions of test articles were prepared at 2× final concentrations with 5-fold serial dilutions in complete growth medium. Cell treatment was performed in either technical triplicates or duplicates and maintained at 37° C. for 120-hour assay. After treatment, cell viability was determined by CellTiter-Glo 2.0 assay (Catalog #G9243; Promega; Madison, WI, USA) based on the manufacturer's instructions. CellTiter Glo reagent reacts with ATP in metabolically active cells to give a luminescent readout that is directly proportional to the number of viable cells. Briefly, plates were removed from the incubator and equilibrated to room temperature before addition of CellTiter Glo reagent. Luminescence was measured using a Tecan Spark microplate reader (Tecan; Mannedorf, Switzerland).
(§4) Data Analysis: For Cytotoxicity assays, raw luminescence data was background subtracted with average luminescence from the outer wells containing medium only and normalized to untreated controls using Excel (Microsoft; Albuquerque, NM). Dose-response relationships and EC50 values were determined based on non-linear regression analysis of normalized data fit to a four-parameter logistic equation using GraphPad Prism 8.0.

BCMA-positive NCI-H929 = assay: as above; assay type: cell-based, human
Procedure: as §1, §2, §3, §4

[2] = molecular target: T1, Human BCMA (B Cell Maturation Antigen) (human, UniProt Q02223 1-184); assay: cell-based or functional assay
T1 sequence: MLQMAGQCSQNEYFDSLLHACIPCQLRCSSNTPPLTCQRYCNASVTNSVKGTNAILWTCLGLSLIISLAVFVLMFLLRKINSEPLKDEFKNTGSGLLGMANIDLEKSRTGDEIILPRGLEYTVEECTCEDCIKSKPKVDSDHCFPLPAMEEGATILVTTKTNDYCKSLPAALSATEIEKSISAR

NCI-H929 tumor xenograft = assay: In vivo efficacy, NCI-H929 tumor xenograft in SCID beige mice; parameters: species or system CB17 SCID beige mice; settings: for tumor growth: i.p.
Procedure: (§5) Female CB17 SCID beige mice, 6 weeks of age, were purchased from Charles River Laboratories.
(§6) Human multiple myeloma tumor cell lines NCI-H929 and OPM2 were cultured and expanded in RPMI 1640 medium supplemented with 10% FBS, 100 units/ml of penicillin and 100 μg/ml of streptomycin at 37° C. in a 5% CO2 humidified environment for a period of 2-3 weeks before harvesting for implantation. Cell viability determined by Trypan blue dye exclusion assay was >90% before implantation. 5 million of OPM2 or NCI-H929 cells in 100 μl of PBS—Matrigel 1:1 (v/v) mixture were inoculated to the right upper flank of each mouse by s.c. injection.
(§7) Tumor volume measurement was started at day 14 after tumor cell inoculation and performed twice weekly. The longest longitudinal diameter as length and the widest transverse diameter as width were measured by using a digital caliper. Tumor volume (TV) were then calculated by the formula: TV=[length×(width)^2]/2 and were analyzed in Excel.
(§8) The treatment was started when average tumor size reaches ˜400, 200 and 150 mm^3 for NCI-H929 tumor xenografts in Experiment I, III and IV, respectively, or ˜240 mm^3 for OPM2 tumor xenograft in Experiment I.
Mice were euthanized when tumor size reached 2000 mm^3.
After tumor-bearing mice were randomized, anti-BCMA antibody (BCMA-AB1 or BCMA-AB2), anti-BCMA antibody conjugate with Compound 3 (BCMA-AB1-3 or BCMA-AB2-3) or iso-type antibody conjugate with Compound 3 (iso-3) diluted in PBS were administered to mice through i.p. injections. Treatment regimens included 8 mg/kg once, 4 mg/kg Q1W×2 and 2 mg/kg biw×4 of anti-BCMA-AB1 or anti-BCMA-AB1-Compound 3 in Experiment I (FIG. 3); 2 mg/kg biw×4 and 0.67 mg/kg biw×4 of anti-BCMA-AB1 or anti-BCMA-AB1-Compound 3 in Experiment II (FIG. 4); 1, 2, 4, and 8 mg/kg once of anti-BCMA-AB1-Compound 3 or iso-3 in Experiment III (FIG. 5); and 4 mg/kg biw×4 of anti-BCMA-AB2 or 2 and 4 mg/kg biw×4 of anti-BCMA-AB2-Compound 3 in Experiment IV (FIG. 6).
Raw data of tumor measurements were analyzed in Excel. Tumor growth curves were plotted using GraphPad Prism 8.0 software and values were presented as mean t SEM.

OPM2 tumor xenograft = assay: In vivo efficacy, OPM2 tumor xenograft in SCID beige mice; parameters: species or system CB17 SCID beige mice; settings: Experiment II, FIG. 4
Procedure: as §5, §6, §7, §8
Mice were euthanized when tumor size reached 2000 mm^3. […]
Raw data of tumor measurements were analyzed in Excel. […]

K562, MM.1R and NCI-H929 = assay: In vitro cell viability assay, Example B1, statements over several cell lines; assay type: cell-based, human; settings: AB1 clone versus AB2 clone ADCs
Procedure: (§9) The in vitro efficacies of ADCs anti-BCMA-Compound 1, anti-BCMA-Compound 2, anti-BCMA-Compound 3, anti-BCMA-Compound 4, anti-BCMA-Compound 5, anti-BCMA-Compound 6, anti-BCMA-Compound 7, and anti-BCMA-Compound 8, were evaluated using the following human cancer cell lines: K562, MM.1R and NCI-H929, purchased from the American Type Culture Collection (ATCC; Manassas, VA). The cells were cultured in RPMI-1640 medium (Gibco ThermoFisher; Waltham, MA) supplemented with 10% heat-inactivated fetal bovine serum (FBS: Corning; Corning, NY, USA) and 1× penicillin-streptomycin (Corning) and maintained at 37° C. in a 5% CO2 humidified environment.
The in vitro assays were performed as follows: Tumor cells were harvested by centrifugation at 300 g for 5 minutes and plated into 96-well clear bottom white-walled plates (5,000 to 10,000 cells/well in 50 μL complete medium) and maintained at 37° C. […] After treatment, inhibition of cancer cell growth was determined using the Cell Titer-Glo® 2.0 Cell Viability Assay (Promega; Madison, WI, USA) as described by the manufacturers' protocol. Luminescence was measured using a Perkin-Elmer Envision 2104 Microplate Reader (Waltham, MA).
Data were normalized to non-treated controls using Microsoft Excel (Redmond, WA, USA) and analyzed using GraphPad Prism software (version 8; La Jolla, CA, USA). […]

K562 (BCMA −) cells = assay: In vitro cell viability assay (Cell Titer-Glo 2.0), Example B1; assay type: cell-based, human; settings: Table 4; 5-day assays; AB1 clone; read-out: EC50 Values, Cell Line K562
Procedure: as §9
The in vitro assays were performed as follows: Tumor cells were harvested by centrifugation at 300 g for 5 minutes and plated into 96-well clear bottom white-walled plates (5,000 to 10,000 cells/well in 50 μL complete medium) and maintained at 37° C. Cells were then treated in duplicate with 50 μL of test articles prepared at 2× final concentration that were serially diluted in complete medium and incubated at 37° C. for up to 120 hrs. After treatment, inhibition of cancer cell growth was determined using the Cell Titer-Glo® 2.0 Cell Viability Assay (Promega; Madison, WI, USA) as described by the manufacturers' protocol. Luminescence was measured using a Perkin-Elmer Envision 2104 Microplate Reader (Waltham, MA).
Data were normalized to non-treated controls using Microsoft Excel (Redmond, WA, USA) and analyzed using GraphPad Prism software (version 8; La Jolla, CA, USA). Half-maximal effective concentrations (EC50) were derived from dose response curves were generated using non-linear regression analysis fit to a 4-parameter logistic equation.

[3] = Table 7, 120-hour (5-day) assay, AB1 clone

CC[C@H](C)[C@@H]([C@@H](CC(=O)N1CCC[C@H]1[C@H](OC)[C@@H](C)C(=O)N[C@H](CN=[N+]=[N-])Cc1ccc(NC(C)C)cc1)OC)N(C)C(=O)[C@@H](NC(=O)[C@H](C(C)C)N(C)C)C(C)C [D3, reference compound]
EC50 [1]: 0.88 to 1.53 nM | EC50 (BCMA-negative K562; [3]): 1.52 nM | EC50 (BCMA-positive NCI-H929; [3]): 1.08 nM

B1: anti-BCMA-AB1-Compound 50 (antibody, human IgG1, V domains shown)
VH: EVQLVESGGGLVKPGGSLRLSCAASGFTSSTAWMSWVRQAPGKGLEWVGRIKSKSDGGTTDYAAPVKGRFTISRDDSKNTLFLQMNSLKTEDTAVYYCAKGGGTYGYWGQGTTVTVSS
VL: QSVLTQPASVSGSPGQSVTISCTGTSSAHGGHYYVSWYQQHPGKAPKLMIYDVSNRPSGVSNRFSGSKSGNTASLTISGLQAEDEADYYCGSYTSSGSYVFGTGTKLTVL
modifications: drug-linker Compound 50 on antibody cysteine thiols (C-lock linkage; positions not stated)
EC50 of cell viability (CellTiter-Glo 2.0), NCI-H929 (BCMA-positive) cells, 120-hour assay [2]: 0.762 nM

B2: anti-BCMA-AB1-Compound 51 (antibody, human IgG1, V domains shown)
VH: B1 VH
VL: B1 VL
modifications: drug-linker Compound 51 on antibody cysteine thiols (C-lock linkage; positions not stated)
EC50 of cell viability (CellTiter-Glo 2.0), NCI-H929 (BCMA-positive) cells, 120-hour assay [2]: 1.93 nM

B3: anti-BCMA-AB1-Compound 53 (antibody, human IgG1, V domains shown)
VH: B1 VH
VL: B1 VL
modifications: drug-linker Compound 53 conjugated to the antibody (PFP linkage; residues not stated)
EC50 of cell viability (CellTiter-Glo 2.0), NCI-H929 (BCMA-positive) cells, 120-hour assay [2]: 0.398 nM

B4: BCMA-AB1-3: Compound 3 conjugated with anti-BCMA antibody clone BCA7-2C5 (AB1) (conjugate)
VH: B1 VH
VL: B1 VL
tumor regression / elimination (NCI-H929 tumor xenograft; Experiment I, FIG. 3, all regimens): induced dramatic and prolonged tumor regressions and eliminated all tumors in about two weeks after initial treatments | tumor growth (NCI-H929 tumor xenograft; Experiment I, FIG. 3, 8 mg/kg once, 4 mg/kg Q1W×2, 2 mg/kg biw×4, start ~400 mm^3): significantly inhibited tumor growth | tumor regression / elimination (NCI-H929 tumor xenograft; Experiment III, FIG. 5, high doses): induced dramatic and prolonged tumor regressions and eliminated all tumors in about two weeks after initial treatments | tumor growth (NCI-H929 tumor xenograft; Experiment III, FIG. 5, 1, 2, 4, and 8 mg/kg once): significantly inhibited tumor growth in a dose-dependent manner | activity against K562 cells (BCMA-negative K562; 5-day assays, FIG. 8): did not show activity | effect on NCI-H929 cell viability (BCMA-positive NCI-H929; 5-day assays, FIG. 8): dose-dependently reduced | tumor regression / elimination (OPM2 tumor xenograft; high-dose regimen): induced dramatic and prolonged tumor regressions and eliminated all tumors in about two weeks after initial treatments | tumor growth (OPM2 tumor xenograft; i.p., 2 mg/kg biw×4 and 0.67 mg/kg biw×4): significantly and dose-dependently inhibited tumor growth | relative potency, comparison of Table 5 and Table 6 (K562, MM.1R and NCI-H929): most potent | EC50 (K562 (BCMA −) cells): > 100 nM
